Reference: article PMC3787751

Substrate: [O-][Cl+]O
Experiment: purified protein
Settings: 25 °C, pH 7.0

Row | Protein | Km [µM] | kcat [s⁻¹]
1 | NdCld (Nitrospira defluvii) (protein) ADREKLLTESGVYGTFATFQMDHDWWDLPGESRVISVAEVKGLVEQWSGKILVESYLLRGLSDHADLMFRVHARTLSDTQQFLSAFMGTRLGRHLTSGGLLHGVSKKPTYVAGFPESMKTELQVNGESGSRPYAIVIPIKKDAEWWALDQEARTALMQEHTQAALPYLKTVKRKLYHSTGLDDVDFITYFETERLEDFHNLVRALQQVKEFRHNRRFGHPTLLGTMSPLDEILEKFAQ | 58 ± 9 | 35 ± 5
2 | NwCld (Nitrobacter winogradskyi Nb-255) (protein) MTFTVFTGGDSGAWSILSVAPVIGESLMAASHLAIAPSLSLGDTSATTPWQLRGVASHARYVERAEKIALTSVQAGLGRNEATRAALIPIRKSAAWWEMTQDERRAIFEDKSHHIAASLKYLPAIARQLYHCRDIGEPFDFLTWFEYAPEHATMFEDLVGVLRATEEWTYVEREVDIRLARAI | 90 ± 12 | 190 ± 14
